T1: CD19 (UniProt P15391 20-291, limits assumed)
T1 sequence (looked up): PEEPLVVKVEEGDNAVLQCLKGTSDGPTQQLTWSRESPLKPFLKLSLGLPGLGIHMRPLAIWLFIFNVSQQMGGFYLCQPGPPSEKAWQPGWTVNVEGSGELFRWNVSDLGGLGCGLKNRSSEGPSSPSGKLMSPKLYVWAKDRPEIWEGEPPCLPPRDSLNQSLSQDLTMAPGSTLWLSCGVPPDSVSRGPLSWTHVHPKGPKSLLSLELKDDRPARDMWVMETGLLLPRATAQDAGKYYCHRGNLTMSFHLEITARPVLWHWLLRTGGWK


Experiments:
human PD-L1 = biological target: T2, human PD-L1 (human, UniProt Q9NZQ7 19-238); assay: BLI (Octet), binder on AHC sensor; antigen conditions not stated
T2 construct: Soluble antigen in Octet; bought; also called human PD-L1 (Acro PD1-H5229)

human 4-1BB = biological target: T3, human 4-1BB (human, UniProt Q07011 24-186, limits assumed); assay: as above
T3 construct: Soluble antigen in Octet; construct not described

CD19 = biological target: T1, CD19; assay: as above
human CD3 = biological target: T4, human CD3 (human, UniProt P07766 23-126; P04234 22-105); assay: BLI (Octet), binder on AHC sensor, His-tagged human CD3 (series from 200 nM or single 100 nM), 1:1 fit
T4 construct: also called His-tagged human CD3; human CD3 (Acro CDD-H52W1)

Binder	Kd (human PD-L1) [nM]	Kd (human 4-1BB) [nM]	Kd (CD19) [nM]	Kd (human CD3) [nM]
SI-68P17 (other, penta-miniGNC; D1 αCD3, D2 αCD19, D3 αEGFR (Fab), D4 α4-1BB, D5 αPD-L1) chain 1: DVVMTQSPSTLSASVGDRVTINCQASESISSWLAWYQQKPGKAPKLLIYEASKLASGVPSRFSGSGSGTEFTLTISSLQPDDFATYYCQGYFYFISRTYVNSFGGGTKVEIKGGGGSGGGGSGGGGSGGGGSEVQLVESGGGLVQPGGSLRLSCAASGFTISTNAMSWVRQAPGKGLEWIGVITGRDITYYASWAKGRFTISRDNSKNTLYLQMNSLRAEDTAVYYCARDGGSSAITSNNIWGQGTLVTVSSGGGGSGGGGSQVQLQQSGPGLVKPSETLSITCTVSGFSLTNYGVHWIRQAPGKGLEWLGVIWSGGNTDYNTPFTSRFTITKDNSKNQVYFKLRSVRADDTAIYYCARALTYYDYEFAYWGQGTLVTVSSASTKGPSVFPLAPSSKSTSGGTAALGCLVKDYFPEPVTVSWNSGALTSGVHTFPAVLQSSGLYSLSSVVTVPSSSLGTQTYICNVNHKPSNTKVDKRVEPKSCDKTHTCPPCPAPEAAGGPSVFLFPPKPKDTLMISRTPEVTCVVVDVSHEDPEVKFNWYVDGVEVHNAKTKPREEQYNSTYRVVSVLTVLHQDWLNGKEYKCAVSNKALPAPIEKTISKAKGQPREPQVYTLPPSRDELTKNQVSLSCAVKGFYPSDIAVEWESNGQPENNYKTTPPVLDSDGSFFLVSKLTVDKSRWQQGNVFSCSVMHEALHNHYTQKSLSLSPGGGGGSGGGGSDVVMTQSPSSVSASVGDRVTITCQASQNIRTYLSWYQQKPGKAPKLLIYAAANLASGVPSRFSGSGSGTDFTLTISDLEPGDAATYYCQSTYLGTDYVGGAFGGGTKLTVLGGGGSGGGGSGGGGSGGGGSEVQLVESGGGLVQPGGSLRLSCTASGFTISSYHMQWVRQAPGKGLEYIGTISSGGNVYYASSARGRFTISRPSSKNTVDLQMNSLRAEDTAVYYCARDSGYSDPMWGQGTLVTVSS chain 2: ENVLTQSPASLSASPGERVTITCSASSSVSYMHWYQQKPGQAPKLWIYDTSKLASGVPSRFSGSGSGNDHTLTISSMEPEDFATYYCFQGSVYPFTFGQGTKVTVLGGGGSGGGGSGGGGSGGGGSQVTLKESGPGLVQPGQTLSLTCAFSGFSLSTSGMGVGWIRQPPGKGLEWLAHIWWDDDKRYNPALKSRLTISKDTSKNQVYLQMNSLDAEDTAVYYCARMELWSYYFDYWGQGTLVTVSSGGGGSGGGGSEIVLTQSPSTLSVSPGERATFSCRASQSIGTNIHWYQQKPGKPPRLLIKYASESISGIPDRFSGSGSGTEFTLTISSVQSEDFAVYYCQQNNNWPTTFGPGTKLTVLRTVAAPSVFIFPPSDEQLKSGTASVVCLLNNFYPREAKVQWKVDNALQSGNSQESVTEQDSKDSTYSLSSTLTLSKADYEKHKVYACEVTHQGLSSPVTKSFNRGECGGDKTHTCPPCPAPEAAGGPSVFLFPPKPKDTLMISRTPEVTCVVVDVSHEDPEVKFNWYVDGVEVHNAKTKPREEQYNSTYRVVSVLTVLHQDWLNGKEYKCAVSNKALPAPIEKTISKAKGQPREPQVYTLPPSRDELTKNQVSLWCLVKGFYPSDIAVEWESNGQPENNYKTTPPVLDSDGSFFLYSKLTVDKSRWQQGNVFSCSVMHEALHNRFTQKSLSLSPGGGGGSGGGGSDIQMTQSPSTLSASVGDRVTITCQASQSISSHLNWYQQKPGKAPKLLIYKASTLASGVPSRFSGSGSGTEFTLTISSLQPDDFATYYCQQGYSWGNVDNVFGGGTKVTVLGGGGSGGGGSGGGGSGGGGSEVQLLESGGGLVQPGGSLSLSCAASGFSFSSGYDMCWVRQAPGKGLEWIACIAAGSAGITYDANWAKGRFTISRDNSKNTLYLQMNSLRAEDTAVYYCARSAFSFDYAMDLWGQGTLVTVSS	2.72	26.8	5.05	15.8
SI-68P18 (other, penta-miniGNC; D1 αCD3*** (humanized framework 2), D2 αCD19, D3 αEGFR (Fab), D4 α4-1BB, D5 αPD-L1) chain 1: DVQMTQSPSTLSATVGQRVTINCQASESISSWLAWYQQKPGQPPKLLIYEASKLASGVPSRFSGSGSGTEFTLTISSLQSDDFATYYCQGYFYFISRTYVNSFGGGTRVEIKGGGGSGGGGSGGGGSGGGGSQQLLESGGRLIKPGATLRLTCKTSGFTISTNAMSWVRQPPGKGLEWIGVITGRDITYYASWAKGRFTISKTSINTVFLQMRSLRAEDTAVYYCARDGGSSAITSNNIWGRGTLVTVSSGGGGSGGGGSQVQLQQSGPGLVKPSETLSITCTVSGFSLTNYGVHWIRQAPGKGLEWLGVIWSGGNTDYNTPFTSRFTITKDNSKNQVYFKLRSVRADDTAIYYCARALTYYDYEFAYWGQGTLVTVSSASTKGPSVFPLAPSSKSTSGGTAALGCLVKDYFPEPVTVSWNSGALTSGVHTFPAVLQSSGLYSLSSVVTVPSSSLGTQTYICNVNHKPSNTKVDKRVEPKSCDKTHTCPPCPAPEAAGGPSVFLFPPKPKDTLMISRTPEVTCVVVDVSHEDPEVKFNWYVDGVEVHNAKTKPREEQYNSTYRVVSVLTVLHQDWLNGKEYKCAVSNKALPAPIEKTISKAKGQPREPQVYTLPPSRDELTKNQVSLSCAVKGFYPSDIAVEWESNGQPENNYKTTPPVLDSDGSFFLVSKLTVDKSRWQQGNVFSCSVMHEALHNHYTQKSLSLSPGGGGGSGGGGSDVVMTQSPSSVSASVGDRVTITCQASQNIRTYLSWYQQKPGKAPKLLIYAAANLASGVPSRFSGSGSGTDFTLTISDLEPGDAATYYCQSTYLGTDYVGGAFGGGTKLTVLGGGGSGGGGSGGGGSGGGGSEVQLVESGGGLVQPGGSLRLSCTASGFTISSYHMQWVRQAPGKGLEYIGTISSGGNVYYASSARGRFTISRPSSKNTVDLQMNSLRAEDTAVYYCARDSGYSDPMWGQGTLVTVSS chain 2: ENVLTQSPASLSASPGERVTITCSASSSVSYMHWYQQKPGQAPKLWIYDTSKLASGVPSRFSGSGSGNDHTLTISSMEPEDFATYYCFQGSVYPFTFGQGTKVTVLGGGGSGGGGSGGGGSGGGGSQVTLKESGPGLVQPGQTLSLTCAFSGFSLSTSGMGVGWIRQPPGKGLEWLAHIWWDDDKRYNPALKSRLTISKDTSKNQVYLQMNSLDAEDTAVYYCARMELWSYYFDYWGQGTLVTVSSGGGGSGGGGSEIVLTQSPSTLSVSPGERATFSCRASQSIGTNIHWYQQKPGKPPRLLIKYASESISGIPDRFSGSGSGTEFTLTISSVQSEDFAVYYCQQNNNWPTTFGPGTKLTVLRTVAAPSVFIFPPSDEQLKSGTASVVCLLNNFYPREAKVQWKVDNALQSGNSQESVTEQDSKDSTYSLSSTLTLSKADYEKHKVYACEVTHQGLSSPVTKSFNRGECGGDKTHTCPPCPAPEAAGGPSVFLFPPKPKDTLMISRTPEVTCVVVDVSHEDPEVKFNWYVDGVEVHNAKTKPREEQYNSTYRVVSVLTVLHQDWLNGKEYKCAVSNKALPAPIEKTISKAKGQPREPQVYTLPPSRDELTKNQVSLWCLVKGFYPSDIAVEWESNGQPENNYKTTPPVLDSDGSFFLYSKLTVDKSRWQQGNVFSCSVMHEALHNRFTQKSLSLSPGGGGGSGGGGSDIQMTQSPSTLSASVGDRVTITCQASQSISSHLNWYQQKPGKAPKLLIYKASTLASGVPSRFSGSGSGTEFTLTISSLQPDDFATYYCQQGYSWGNVDNVFGGGTKVTVLGGGGSGGGGSGGGGSGGGGSEVQLLESGGGLVQPGGSLSLSCAASGFSFSSGYDMCWVRQAPGKGLEWIACIAAGSAGITYDANWAKGRFTISRDNSKNTLYLQMNSLRAEDTAVYYCARSAFSFDYAMDLWGQGTLVTVSS	1	7.51	1.35	14.5
SI-68P19 (other, penta-miniGNC; D1 αCD3**** (humanized framework 3), D2 αCD19, D3 αEGFR (Fab), D4 α4-1BB, D5 αPD-L1) chain 1: DVVMTQSPSSLSASVGDRVTISCQASESISSWLAWYQQKPGQAPKLLIYEASKLASGVPSRFSGSGSGTEFTLTISSLEPEDFATYYCQGYFYFISRTYVNSFGGGTKVEIKGGGGSGGGGSGGGGSGGGGSQQLVESGGGLVKPGGSLRLSCAASGFTISTNAMSWVRQAPGKGLEWVGVITGRDITYYASWAKGRFTISKTSKNTVYLQMNSLRAEDTAVYYCARDGGSSAITSNNIWGQGTLVTVSSGGGGSGGGGSQVQLQQSGPGLVKPSETLSITCTVSGFSLTNYGVHWIRQAPGKGLEWLGVIWSGGNTDYNTPFTSRFTITKDNSKNQVYFKLRSVRADDTAIYYCARALTYYDYEFAYWGQGTLVTVSSASTKGPSVFPLAPSSKSTSGGTAALGCLVKDYFPEPVTVSWNSGALTSGVHTFPAVLQSSGLYSLSSVVTVPSSSLGTQTYICNVNHKPSNTKVDKRVEPKSCDKTHTCPPCPAPEAAGGPSVFLFPPKPKDTLMISRTPEVTCVVVDVSHEDPEVKFNWYVDGVEVHNAKTKPREEQYNSTYRVVSVLTVLHQDWLNGKEYKCAVSNKALPAPIEKTISKAKGQPREPQVYTLPPSRDELTKNQVSLSCAVKGFYPSDIAVEWESNGQPENNYKTTPPVLDSDGSFFLVSKLTVDKSRWQQGNVFSCSVMHEALHNHYTQKSLSLSPGGGGGSGGGGSDVVMTQSPSSVSASVGDRVTITCQASQNIRTYLSWYQQKPGKAPKLLIYAAANLASGVPSRFSGSGSGTDFTLTISDLEPGDAATYYCQSTYLGTDYVGGAFGGGTKLTVLGGGGSGGGGSGGGGSGGGGSEVQLVESGGGLVQPGGSLRLSCTASGFTISSYHMQWVRQAPGKGLEYIGTISSGGNVYYASSARGRFTISRPSSKNTVDLQMNSLRAEDTAVYYCARDSGYSDPMWGQGTLVTVSS chain 2: ENVLTQSPASLSASPGERVTITCSASSSVSYMHWYQQKPGQAPKLWIYDTSKLASGVPSRFSGSGSGNDHTLTISSMEPEDFATYYCFQGSVYPFTFGQGTKVTVLGGGGSGGGGSGGGGSGGGGSQVTLKESGPGLVQPGQTLSLTCAFSGFSLSTSGMGVGWIRQPPGKGLEWLAHIWWDDDKRYNPALKSRLTISKDTSKNQVYLQMNSLDAEDTAVYYCARMELWSYYFDYWGQGTLVTVSSGGGGSGGGGSEIVLTQSPSTLSVSPGERATFSCRASQSIGTNIHWYQQKPGKPPRLLIKYASESISGIPDRFSGSGSGTEFTLTISSVQSEDFAVYYCQQNNNWPTTFGPGTKLTVLRTVAAPSVFIFPPSDEQLKSGTASVVCLLNNFYPREAKVQWKVDNALQSGNSQESVTEQDSKDSTYSLSSTLTLSKADYEKHKVYACEVTHQGLSSPVTKSFNRGECGGDKTHTCPPCPAPEAAGGPSVFLFPPKPKDTLMISRTPEVTCVVVDVSHEDPEVKFNWYVDGVEVHNAKTKPREEQYNSTYRVVSVLTVLHQDWLNGKEYKCAVSNKALPAPIEKTISKAKGQPREPQVYTLPPSRDELTKNQVSLWCLVKGFYPSDIAVEWESNGQPENNYKTTPPVLDSDGSFFLYSKLTVDKSRWQQGNVFSCSVMHEALHNRFTQKSLSLSPGGGGGSGGGGSDIQMTQSPSTLSASVGDRVTITCQASQSISSHLNWYQQKPGKAPKLLIYKASTLASGVPSRFSGSGSGTEFTLTISSLQPDDFATYYCQQGYSWGNVDNVFGGGTKVTVLGGGGSGGGGSGGGGSGGGGSEVQLLESGGGLVQPGGSLSLSCAASGFSFSSGYDMCWVRQAPGKGLEWIACIAAGSAGITYDANWAKGRFTISRDNSKNTLYLQMNSLRAEDTAVYYCARSAFSFDYAMDLWGQGTLVTVSS	0.7	21.2	3.44	16.7

Reference: patent US20230114801A1 (SYSTIMMUNE, published 2023)
